Among the data in PMC5153698 are BRET50 values, retold here.

This test concerns the target T1, human chemokine receptor CXCR4, C-terminally tagged with Rluc8 or mVenus (human), P61073.
T1 chain: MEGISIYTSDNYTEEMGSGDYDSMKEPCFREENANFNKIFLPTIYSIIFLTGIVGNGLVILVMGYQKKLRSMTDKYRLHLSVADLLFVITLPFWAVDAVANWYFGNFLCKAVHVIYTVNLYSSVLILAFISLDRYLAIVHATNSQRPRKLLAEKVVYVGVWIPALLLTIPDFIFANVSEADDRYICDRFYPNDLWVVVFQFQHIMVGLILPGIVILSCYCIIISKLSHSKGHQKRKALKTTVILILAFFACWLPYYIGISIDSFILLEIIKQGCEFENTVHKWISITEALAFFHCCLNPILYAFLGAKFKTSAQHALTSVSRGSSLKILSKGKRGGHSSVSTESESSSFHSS
Description: FRET or BRET. To be noted: remark: other sources report otherwise.

B1: human chemokine receptor CXCR4, C-terminally tagged with Rluc8 or mVenus, P61073 1-352 (receptor)
chain: MEGISIYTSDNYTEEMGSGDYDSMKEPCFREENANFNKIFLPTIYSIIFLTGIVGNGLVILVMGYQKKLRSMTDKYRLHLSVADLLFVITLPFWAVDAVANWYFGNFLCKAVHVIYTVNLYSSVLILAFISLDRYLAIVHATNSQRPRKLLAEKVVYVGVWIPALLLTIPDFIFANVSEADDRYICDRFYPNDLWVVVFQFQHIMVGLILPGIVILSCYCIIISKLSHSKGHQKRKALKTTVILILAFFACWLPYYIGISIDSFILLEIIKQGCEFENTVHKWISITEALAFFHCCLNPILYAFLGAKFKTSAQHALTSVSRGSSLKILSKGKRGGHSSVSTESESSSFHSS
Molecule B1 had a BRET50 of 0.11.
